The term IC50 denotes the concentration at which inhibition is half-maximal. Lower therefore signals greater potency in that assay.

B1: peptide 12, c(*aRGDA*A) (peptide)
peptide: cyclo([dNMeA]RGDA[NMeA])
notes: NMe(1,6) scaffold cyclic hexapeptide; also called the drug

*1 amine or outer side, *2 acyl side, *3 side chain or, on linkers, in order; H or OH if unused. Where a SMILES comes first, the peptide text is derived from it. [ ]: non-standard residue; d: D form. Arg(ω,ω'-(C6H13OCO)2) = CCCCCCOC(=O)N=C(NCCC[C@H](N)C(=O)O)NC(=O)OCCCCCC; X1 = CCCCCCOC(=O)N=C(NCCC[C@@H](N[*:1])C(=O)[*:2])NC(=O)OCCCCCC; dNMeR = CN[C@H](CCCNC(=N)N)C(=O)O; NMeD = CN[C@@H](CC(=O)O)C(=O)O; NMeV = CN[C@H](C(=O)O)C(C)C; NMeA = CN[C@@H](C)C(=O)O; dNMeA = CN[C@H](C)C(=O)O

T3 sequence (P06756 31-992 limits assumed, chain 1 of 2): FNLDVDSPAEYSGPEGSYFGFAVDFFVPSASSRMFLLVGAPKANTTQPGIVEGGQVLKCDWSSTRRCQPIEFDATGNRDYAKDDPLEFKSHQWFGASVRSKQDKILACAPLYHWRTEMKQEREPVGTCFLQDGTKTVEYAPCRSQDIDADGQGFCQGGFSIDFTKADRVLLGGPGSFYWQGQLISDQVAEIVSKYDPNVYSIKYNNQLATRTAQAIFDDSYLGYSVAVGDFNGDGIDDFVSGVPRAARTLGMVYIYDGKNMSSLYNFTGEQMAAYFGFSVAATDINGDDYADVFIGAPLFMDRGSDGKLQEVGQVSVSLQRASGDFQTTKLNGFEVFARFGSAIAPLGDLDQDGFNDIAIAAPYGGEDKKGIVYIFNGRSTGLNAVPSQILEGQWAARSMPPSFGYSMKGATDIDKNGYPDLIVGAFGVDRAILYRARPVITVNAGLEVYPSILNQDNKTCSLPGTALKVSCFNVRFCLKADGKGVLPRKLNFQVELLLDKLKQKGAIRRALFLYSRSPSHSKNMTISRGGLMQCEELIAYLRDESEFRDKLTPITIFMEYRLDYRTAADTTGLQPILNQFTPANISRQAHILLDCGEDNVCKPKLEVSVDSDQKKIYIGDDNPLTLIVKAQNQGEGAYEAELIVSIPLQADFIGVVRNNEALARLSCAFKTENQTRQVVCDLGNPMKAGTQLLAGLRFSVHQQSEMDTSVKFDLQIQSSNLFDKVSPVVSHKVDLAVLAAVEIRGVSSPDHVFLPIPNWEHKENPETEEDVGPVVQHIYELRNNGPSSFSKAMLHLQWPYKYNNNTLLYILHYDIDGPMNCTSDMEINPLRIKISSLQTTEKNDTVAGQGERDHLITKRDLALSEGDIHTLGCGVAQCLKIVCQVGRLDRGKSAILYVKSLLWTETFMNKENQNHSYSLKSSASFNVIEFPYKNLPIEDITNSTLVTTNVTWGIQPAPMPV
T3 sequence (P05106 27-718 limits assumed, chain 2 of 2): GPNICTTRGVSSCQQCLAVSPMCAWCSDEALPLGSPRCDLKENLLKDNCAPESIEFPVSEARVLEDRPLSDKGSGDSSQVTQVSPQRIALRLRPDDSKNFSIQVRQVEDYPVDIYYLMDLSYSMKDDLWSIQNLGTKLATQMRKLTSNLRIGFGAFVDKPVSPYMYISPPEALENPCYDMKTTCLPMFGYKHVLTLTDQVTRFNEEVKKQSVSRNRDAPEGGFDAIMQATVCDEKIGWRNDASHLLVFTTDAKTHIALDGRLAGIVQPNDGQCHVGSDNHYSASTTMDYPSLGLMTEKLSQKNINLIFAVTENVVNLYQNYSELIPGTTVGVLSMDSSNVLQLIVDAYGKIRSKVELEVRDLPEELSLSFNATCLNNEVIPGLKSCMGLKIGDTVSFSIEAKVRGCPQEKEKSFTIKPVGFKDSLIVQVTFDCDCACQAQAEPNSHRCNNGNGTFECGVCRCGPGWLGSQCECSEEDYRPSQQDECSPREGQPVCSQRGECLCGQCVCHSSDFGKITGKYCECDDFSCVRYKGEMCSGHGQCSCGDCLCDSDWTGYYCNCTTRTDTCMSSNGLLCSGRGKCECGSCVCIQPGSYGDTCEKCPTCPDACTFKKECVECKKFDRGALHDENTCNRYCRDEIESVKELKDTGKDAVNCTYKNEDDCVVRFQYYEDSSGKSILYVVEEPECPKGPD
T1 sequence (P06756 31-992 limits assumed, chain 1 of 2): as the sequence (P06756 31-992 limits assumed, chain 1 of 2) above
T1 sequence (P18564 22-707 limits assumed, chain 2 of 2): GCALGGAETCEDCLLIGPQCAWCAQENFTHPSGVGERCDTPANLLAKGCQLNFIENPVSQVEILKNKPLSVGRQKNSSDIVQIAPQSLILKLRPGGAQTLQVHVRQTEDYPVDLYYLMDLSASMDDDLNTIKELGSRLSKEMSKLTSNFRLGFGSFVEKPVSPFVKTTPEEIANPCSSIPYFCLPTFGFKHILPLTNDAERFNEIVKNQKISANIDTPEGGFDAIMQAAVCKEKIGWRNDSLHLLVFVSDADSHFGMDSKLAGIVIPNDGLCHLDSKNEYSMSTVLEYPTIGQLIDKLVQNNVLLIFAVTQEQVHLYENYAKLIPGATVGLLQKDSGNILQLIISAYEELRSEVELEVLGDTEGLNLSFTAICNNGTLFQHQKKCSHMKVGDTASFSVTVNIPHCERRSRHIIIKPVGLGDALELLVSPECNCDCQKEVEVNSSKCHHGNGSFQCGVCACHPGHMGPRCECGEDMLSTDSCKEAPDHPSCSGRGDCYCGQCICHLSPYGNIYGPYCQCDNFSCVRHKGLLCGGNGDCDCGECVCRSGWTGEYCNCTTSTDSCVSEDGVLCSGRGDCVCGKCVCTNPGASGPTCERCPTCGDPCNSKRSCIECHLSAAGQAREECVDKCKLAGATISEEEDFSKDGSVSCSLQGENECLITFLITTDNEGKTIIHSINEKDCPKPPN
T4 sequence (P06756 31-992 limits assumed, chain 1 of 2): as the sequence (P06756 31-992 limits assumed, chain 1 of 2) above
T4 sequence (P18084 24-719 limits assumed, chain 2 of 2): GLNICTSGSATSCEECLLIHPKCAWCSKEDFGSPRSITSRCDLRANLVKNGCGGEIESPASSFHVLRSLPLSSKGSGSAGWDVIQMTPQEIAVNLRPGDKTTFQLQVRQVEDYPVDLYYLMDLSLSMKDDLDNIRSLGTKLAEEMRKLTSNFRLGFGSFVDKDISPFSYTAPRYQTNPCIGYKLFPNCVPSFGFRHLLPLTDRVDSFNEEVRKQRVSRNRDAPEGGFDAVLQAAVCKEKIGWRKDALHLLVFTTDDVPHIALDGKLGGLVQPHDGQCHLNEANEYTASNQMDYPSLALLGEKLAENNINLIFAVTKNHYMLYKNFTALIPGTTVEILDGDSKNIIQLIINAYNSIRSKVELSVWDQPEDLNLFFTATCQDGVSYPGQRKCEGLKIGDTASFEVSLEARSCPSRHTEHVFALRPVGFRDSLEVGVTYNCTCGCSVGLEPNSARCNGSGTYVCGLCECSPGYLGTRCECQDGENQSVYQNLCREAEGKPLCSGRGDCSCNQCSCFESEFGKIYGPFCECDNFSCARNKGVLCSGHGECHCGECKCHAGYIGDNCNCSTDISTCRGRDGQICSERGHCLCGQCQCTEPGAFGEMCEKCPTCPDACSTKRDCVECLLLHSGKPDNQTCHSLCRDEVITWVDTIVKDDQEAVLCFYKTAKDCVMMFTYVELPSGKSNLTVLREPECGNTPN

One data set concerns the target T1, human αvβ6-Integrin (human, UniProt P06756 31-992; P18564 22-707, limits assumed).
T1 construct: Soluble integrin bought from R&D
Put plainly: solid-phase competition assay; value given for the internal standard.
Details: not given
In turn, RTDLDSLRT (Internal standard for αvβ6 and αvβ8) [linear peptide RTDLDSLRT] came in with a half-inhibitory concentration (IC50) of 6 to 33 nM.

The target in another data set is T2, human αvβ8-Integrin (human, UniProt P06756 31-992; P26012 43-684).
T2 construct: Soluble integrin bought from R&D
T2 sequence (P06756 31-992 limits assumed, chain 1 of 2): as the sequence (P06756 31-992 limits assumed, chain 1 of 2) above
T2 sequence (P26012 43-684 limits assumed, chain 2 of 2): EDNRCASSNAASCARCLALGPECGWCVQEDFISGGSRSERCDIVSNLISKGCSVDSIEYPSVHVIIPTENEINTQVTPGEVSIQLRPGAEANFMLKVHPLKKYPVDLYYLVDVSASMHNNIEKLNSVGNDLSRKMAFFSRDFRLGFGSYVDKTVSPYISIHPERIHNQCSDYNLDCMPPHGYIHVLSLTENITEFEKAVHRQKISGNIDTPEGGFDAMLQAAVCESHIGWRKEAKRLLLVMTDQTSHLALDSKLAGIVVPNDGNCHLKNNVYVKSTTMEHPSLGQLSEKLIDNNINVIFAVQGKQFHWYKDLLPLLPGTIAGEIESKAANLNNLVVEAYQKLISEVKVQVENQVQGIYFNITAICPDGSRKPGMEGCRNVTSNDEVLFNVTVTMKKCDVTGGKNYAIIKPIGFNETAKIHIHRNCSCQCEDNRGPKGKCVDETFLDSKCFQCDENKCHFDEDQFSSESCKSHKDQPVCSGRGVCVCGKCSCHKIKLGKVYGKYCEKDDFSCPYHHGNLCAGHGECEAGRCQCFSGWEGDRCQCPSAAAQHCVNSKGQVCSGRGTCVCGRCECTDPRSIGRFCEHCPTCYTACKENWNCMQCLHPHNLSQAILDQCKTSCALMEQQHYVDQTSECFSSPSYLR
Described as above.
Details: not given
The molecule RTDLDSLRT (Internal standard for αvβ6 and αvβ8) [linear peptide RTDLDSLRT] registered an IC50 of 8 to 100 nM.

Another data set addresses T3, human αvβ3-integrin (human, UniProt P06756 31-992; P05106 27-718).
T3 construct: Soluble integrin bought from R&D; also called integrin subtype αvβ3; αvβ3 receptor
Put plainly: solid-phase competition assay: soluble human αvβ3 on coated vitronectin.
Details: not given
Regarding B1, the IC50 is 4.8 nM.
In turn, cyclo([dR]G[NMeD]A[NMeA]A) (NMe(3,5) scaffold cyclic hexapeptide) [peptide 17, c(rG*DA*AA)] yielded an IC50 of 2350 nM.
Still for that read-out and setting: the value for cyclo([dNMeR]GDA[NMeA]A) (NMe(1,5) scaffold cyclic hexapeptide) [peptide 5, c(*rGDA*AA)] was 13 nM.
cyclo([dNMeR]GDA[NMeA]V) (NMe(1,5) scaffold cyclic hexapeptide) [peptide 32, c(*rGDA*AV)] returned an IC50 of 5.6 nM.
In turn, cyclo([dNMeR]GDA[NMeA]F) (NMe(1,5) scaffold cyclic hexapeptide) [peptide 33, c(*rGDA*AF)] registered an IC50 of 4.4 nM.
Same read-out and setting: the value for cyclo([dR]GDA[NMeA][NMeA]) (NMe(5,6) scaffold cyclic hexapeptide) [peptide 23, c(rGDA*A*A)] was 73 nM.

Another data set has as its target T4, human αvβ5-integrin (human, UniProt P06756 31-992; P18084 24-719, limits assumed).
T4 construct: Soluble integrin bought from Millipore
Put plainly: solid-phase competition assay: soluble human αvβ5 on coated vitronectin.
Details: not given
B1: the IC50 stood at 1500 nM.
With cyclo([dNMeR]GDA[NMeA]A) (NMe(1,5) scaffold cyclic hexapeptide) [peptide 5, c(*rGDA*AA)], the IC50 is 170 nM.

Another data set deals with T1, human αvβ6-Integrin. Put plainly: solid-phase competition assay: soluble human αvβ6 on coated LAP (TGF-β).
Details: not given
On to B1, for which the IC50 was 770 nM.
The molecule cyclo([dNMeR]GDA[NMeA]A) (NMe(1,5) scaffold cyclic hexapeptide) [peptide 5, c(*rGDA*AA)] displayed a 50% inhibitory concentration (IC50) of 25 nM.
Molecule cyclo([dNMeR]GDA[NMeA]V) (NMe(1,5) scaffold cyclic hexapeptide) [peptide 32, c(*rGDA*AV)] yielded an IC50 of 3.8 nM.
Same read-out and setting: the value for cyclo([dNMeR]GDA[NMeA]F) (NMe(1,5) scaffold cyclic hexapeptide) [peptide 33, c(*rGDA*AF)] was 25 nM; that for cyclo([dR]GDA[NMeA][NMeA]) (NMe(5,6) scaffold cyclic hexapeptide) [peptide 23, c(rGDA*A*A)] was 130 nM.

Test system in the next data set: not listed separately
The data set is described as follows: shake flask in triplicate (rotator; centrifuged); both phases by HPLC-MS/MS; mebendazole reference. To be noted: PBS pH 7.4, mutually saturated, not stated C, DMSO stock (small aliquot).
On to `CCCCCCOC(=O)N=C(NCCC[C@@H]1NC(=O)[C@H](C(C)C)N(C)C(=O)[C@@H](Cc2ccccc2)NC(=O)[C@H](CC(=O)O)NC(=O)CNC1=O)NC(=O)OCCCCCC`, for which the “log D (1-octanol / PBS pH 7.4)” value is listed as 3.95 log units.
Take `CCCCCCOC(=O)N=C(NCCC[C@@H]1NC(=O)[C@@H](C(C)C)N(C)C(=O)[C@H](C)N(C)C(=O)[C@H](C)NC(=O)[C@H](CC(=O)OC)NC(=O)CNC1=O)NC(=O)OCCCCCC`: the “log D (1-octanol / PBS pH 7.4)” value is reported as 4.86 log units.
In the case of `CC(C)C[C@@H]1NC(=O)[C@H](CC(=O)O)NC(=O)CNC(=O)[C@H](CCCNC(=N)N)NC(=O)[C@H](Cc2ccccc2)NC(=O)[C@@H]2CCCN2C(=O)[C@@H]2CCCN2C(=O)[C@H](CC(C)C)NC(=O)[C@H](C)NC1=O` (cyclo(RGDLALPPF)), the “log D (1-octanol / PBS pH 7.4)” value is given as −0.19 log units.
As to `COC(=O)Nc1nc2cc(C(=O)c3ccccc3)ccc2[nH]1`, the “log D (1-octanol / PBS pH 7.4)” value was 3.04 log units.
As to `CCCCCCOC(=O)N=C(NCCC[C@H]1NC(=O)[C@H](C(C)C)N(C)C(=O)[C@@H](C)N(C)C(=O)[C@@H](C)NC(=O)[C@@H](CC(=O)OC)NC(=O)CNC1=O)NC(=O)OCCCCCC` (cyclo(G[dD](OMe)[dA][dNMeA][NMeV][X1])), the “log D (1-octanol / PBS pH 7.4)” value is recorded as above 4.5 log units.
Consider `CC(C)C[C@@H]1NC(=O)CNC(=O)[C@@H]2CCCN2C(=O)[C@@H]2CCCN2C(=O)[C@H](CC(C)C)NC(=O)[C@H](CC(=O)O)NC(=O)CNC(=O)[C@H](CCCNC(=N)N)NC1=O` (cyclo(RGDLPPGL)), for which the “log D (1-octanol / PBS pH 7.4)” value is given as below −1 log units.
On the same count and under the same terms, the value for `CCCCCCOC(=O)N=C(NCCC[C@@H]1NC(=O)[C@H](CC(C)C)NC(=O)CNC(=O)[C@@H]2CCCN2C(=O)[C@@H]2CCCN2C(=O)[C@H](CC(C)C)NC(=O)[C@H](CC(=O)O)NC(=O)CNC1=O)NC(=O)OCCCCCC` (cyclo(LPPGL[Arg(ω,ω'-(C6H13OCO)2)]GD)) was above 4.5 log units; that for `CCCCCCOC(=O)NC(=N)NCCC[C@@H]1NC(=O)[C@@H](C(C)C)N(C)C(=O)[C@H](C)N(C)C(=O)[C@H](C)NC(=O)[C@H](CC(=O)OC)NC(=O)CNC1=O` was 1.85 log units; that for `CCCCCCOC(=O)N=C(NCCC[C@@H]1NC(=O)[C@H](Cc2ccccc2)NC(=O)[C@@H]2CCCN2C(=O)[C@@H]2CCCN2C(=O)[C@H](CC(C)C)NC(=O)[C@H](C)NC(=O)[C@H](CC(C)C)NC(=O)[C@H](CC(=O)O)NC(=O)CNC1=O)NC(=O)OCCCCCC` (cyclo(ALPPF[Arg(ω,ω'-(C6H13OCO)2)]GDL)) was above 4.5 log units.
Take `CC(C)[C@H]1C(=O)N[C@@H](CCCNC(=N)N)C(=O)NCC(=O)N[C@@H](CC(=O)O)C(=O)N[C@H](Cc2ccccc2)C(=O)N1C`: the “log D (1-octanol / PBS pH 7.4)” value was below −1 log units.
On to `CC(C)[C@@H]1C(=O)N[C@@H](CCCNC(=N)N)C(=O)NCC(=O)N[C@@H](CC(=O)O)C(=O)N[C@@H](C)C(=O)N(C)[C@@H](C)C(=O)N1C`, for which the “log D (1-octanol / PBS pH 7.4)” value is below −1 log units.

These data come from patent publication US20220016218A1 (YISSUM RESEARCH DEVELOPMENT COMPANY OF THE HEBREW …, published 2022).
